From patent US20100150950A1, “HUMAN ANTIBODIES THAT BIND CD70 AND USES THEREOF” (Medarex, Inc., priority 2006, published 2010)
Numbering of substitutions follows the chain as printed.

Experiments:
[1] = target: T1, human CD70 expressed on the cell surface (human, UniProt P32970 1-193); assay: cell-based or functional assay
T1 sequence: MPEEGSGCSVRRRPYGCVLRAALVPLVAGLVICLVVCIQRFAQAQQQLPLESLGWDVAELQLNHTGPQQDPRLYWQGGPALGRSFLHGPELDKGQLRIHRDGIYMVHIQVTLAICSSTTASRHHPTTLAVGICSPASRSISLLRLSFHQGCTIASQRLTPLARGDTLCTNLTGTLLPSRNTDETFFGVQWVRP

[2] = target: T1, human CD70 expressed on the cell surface; assay: flow cytometry on Raji cells, MFI
Method: (§1) Binding of the anti-CD70 human monoclonal antibodies was assessed by incubating 5×10⁵ cells with antibody at a starting concentration of 50 μg/ml and serially diluting the antibody at a 1:3 dilution. An isotype control antibody was used as a negative control. The cells were washed and binding was detected with a PE-labeled anti-human IgG Ab. Flow cytometric analyses were performed using a FACSCalibur flow cytometry (Becton Dickinson, San Jose, Calif.).

[3] = target: T1, human CD70 expressed on the cell surface; assay: flow cytometry on Granta 519 cells, MFI
Method: as §1

[4] = target: T1, human CD70 expressed on the cell surface; assay: flow cytometry titration on A498 cells, PE anti-human IgG
Method: as §1, with “dilution.” for “dilution. An isotype control antibody was used as a negative control.”

[5] = target: T1, human CD70 expressed on the cell surface; assay: flow cytometry titration on 786-O cells, PE anti-human IgG
Method: as §1, with “dilution.” for “dilution. An isotype control antibody was used as a negative control.”

[6] = target: T1, human CD70 expressed on the cell surface; assay: Scatchard analysis, 125I-labelled antibody on CHO cells transfected with full length CD70
Method: CHO cells were transfected with full length CD70 using standard techniques and grown in RPMI media containing 10% fetal bovine serum (FBS). The cells were trypsinized and washed once in Tris based binding buffer (24 mM Tris pH 7.2, 137 mM NaCl, 2.7 mM KCl, 2 mM Glucose, 1 mM CaCl₂, 1 mM MgCl₂, 0.1% BSA) and the cells were adjusted to 2×10⁶ cells/ml in binding buffer. Millipore plates (MAFB NOB) were coated with 1% nonfat dry milk in water and stored a 4° C. overnight. The plates were washed three times with 0.2 ml of binding buffer. Fifty microliters of buffer alone was added to the maximum binding wells (total binding). Twenty-five microliters of buffer alone was added to the control wells (non-specific binding). […] Varying concentrations of unlabeled antibody at 100 fold excess was added in a volume of 25 μl to control wells and 25 μl of CD70 transfected CHO cells (2×10⁶ cells/ml) in binding buffer were added to all wells. The plates were incubated for 2 hours at 200 RPM on a shaker at 4° C. At the completion of the incubation the Millipore plates were washed three times with 0.2 ml of cold wash buffer (24 mM Tris pH 7.2, 500 mM NaCl, 2.7 mM KCl, 2 mM Glucose, 1 mM CaCl₂, 1 mM MgCl₂, 0.1% BSA.). The filters were removed and counted in a gamma counter. Evaluation of equilibrium binding was performed using single site binding parameters with the Prism software (San Diego, Calif.).

[7] = target: T2, recombinant human CD70 fused with a dual myc-His tag (human, UniProt P32970 39-193); assay: ELISA on plate-coated recombinant myc-tagged CD70, anti-human IgG-HRP detection
T2 construct: also called recombinant myc-tagged CD70; CD70-myc-his; not shown: dual myc-His tag
T2 sequence: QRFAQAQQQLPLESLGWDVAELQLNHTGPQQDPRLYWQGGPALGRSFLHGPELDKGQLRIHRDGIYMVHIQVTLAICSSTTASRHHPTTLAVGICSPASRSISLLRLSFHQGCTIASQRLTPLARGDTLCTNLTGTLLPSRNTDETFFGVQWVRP
Method: Standard ELISA procedures were performed. The anti-CD70 human monoclonal antibodies were added at a concentration of 1 μg/ml and titrated down at 1:2 serial dilutions. Goat-anti-human IgG (Fc or kappa chain-specific) polyclonal antibody conjugated with horseradish peroxidase (HRP) was used as secondary antibody.

[8] = target: human CD16 (FcRγIII) on effector cells (human, UniProt P08637 17-254); assay: cell-based or functional assay
[9] = target: T1, human CD70 expressed on the cell surface; assay: flow cytometry on 786-0 cells, goat F(ab')2 anti-human IgG(Fc)-PE
Method: The cells were incubated for 30 minutes on ice, washed twice in staining buffer and stained with Goat F(ab)′2-anti-human-IgG(Fc)-PE conjugate for 30 minutes. The cells were washed and resuspended in staining buffer for analysis by flow cytometry.

[10] = tested on: CD70-mediated CD27 signaling induced proliferation of human CD3+ T cells; assay: Functional blocking of CD70 costimulated T cell proliferation; format: cell-based; details: anti-CD3 (OKT3), CHO cells with mouse CD32 and human CD70, 3 days
Source text: This example describes the analysis and characterization of the functional blocking of CD70 costimulated T cell proliferation by anti-CD70 antibodies 1F4 IgG1, 1F4 IgG4, 2H5, 2H5 F(ab′)2 and 2H5 Fab.
Human CD3^+ T cells were isolated from cryopreserved PBMC using MACS CD3 Microbeads and then cultured at 2×10^6 cells/ml in RPMI-1640 complete media+10% heat inactivated FCS in the presence of Mitomycin C treated CHO cells stably transfected with both mouse CD32 and human CD70. Cells were stimulated with […] anti-CD3 (clone OKT3) for 3 days, 1 μCi/well of ^3H-Thymidine was added for 6 hours and the cells were harvested. Proliferation was measured as CPM incorporated by scintillation counting.

CD70 = target: T3, CD70 (Homo sapiens, UniProt P32970); assay: Epitope binding experiments using BIAcore
T3 sequence (P32970 1-193): T1 sequence
Method: Such cross-competing antibodies can be identified based on their ability to cross-compete with 2H5, 10B4, 8B5, 18E7, 69A7, 69A7Y or 1F4 in standard CD70 binding assays. For example, standard ELISA assays can be used in which a recombinant human CD70 protein is immobilized on the plate, one of the antibodies is fluorescently labeled and the ability of non-labeled antibodies to compete off the binding of the labeled antibody is evaluated. Additionally or alternatively, BIAcore analysis can be used to assess the ability of the antibodies to cross-compete.

Sequence of human CD16 (FcRγIII) on effector cells (P08637 17-254): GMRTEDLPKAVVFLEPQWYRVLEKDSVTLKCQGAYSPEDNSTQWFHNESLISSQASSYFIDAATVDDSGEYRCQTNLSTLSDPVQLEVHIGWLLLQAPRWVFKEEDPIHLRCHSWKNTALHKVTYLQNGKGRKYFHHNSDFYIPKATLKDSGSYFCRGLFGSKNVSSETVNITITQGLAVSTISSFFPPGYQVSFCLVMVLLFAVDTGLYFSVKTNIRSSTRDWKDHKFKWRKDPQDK

B1: anti-CD70 human monoclonal antibody 2H5 (antibody, IgG1, V domains shown)
VH: QVQLVESGGGVVQPGRSLRLSCAASGFTFSSYIMHWVRQAPGKGLEWVAVISYDGRNKYYADSVKGRFTISRDNSKNTLYLQMNSLRAEDTAVYYCARDTDGYDFDYWGQGTLVTVSS
VL: EIVLTQSPATLSLSPGERATLSCRASQSVSSYLAWYQQKPGQAPRLLIYDASNRATGIPARFSGSGSGTDFTLTISSLEPEDFAVYYCQQRTNWPLTFGGGTKVEIK
notes: Human IgG with kappa light chain; also called HuMAb 2H5; 2H5 IgG1
EC50 of decrease in ^3H-thymidine incorporation, Hum-Zap internalization assay on 786-O cells [1]: 0.9 nM | EC50 [2]: 1.33 nM | EC50 [3]: 1.33 nM | EC50 (read off the curve) [4]: ~8 nM | EC50 (read off the curve) [5]: ~5 nM | Kd [6]: ~2.1 nM | EC50 (read off the curve) [7]: ~0.06 µg/mL

B2: nonfucosylated anti-CD70 human monoclonal antibody 2H5 (antibody, V domains shown)
VH: B1 VH
VL: B1 VL
notes: also called 2H5 NF; 2H5nf
amount of anti-CD16 antibody 3G8 needed to reverse the inhibition of peptide specific CD8+ T cell expansion, against 2H5 [8]: ~1000 fold | potency in lysis of activated human B cells against 2H5, ^51Cr-release ADCC assay with anti-CD16 antibody 3G8 [8]: ~10 fold | EC50 (read off the curve) [9]: ~0.2 µg/mL

B3: anti-CD70 human monoclonal antibody 10B4 (antibody, V domains shown)
VH: QIQLVESGGGVVQPGRSLRLSCAASGFTFGYYAMHWVRQAPGKGLEWVAVISYDGSIKYYADSVKGRFTISRDNSKNTLYLQMNSLRAEDTAVYYCAREGPYSNYLDYWGQGTLVTVSS
VL: AIQLTQSPSSLSASVGDRVTITCRASQGISSALAWYQQKPGKAPKFLIYDASSLESGVPSRFSGSGSGTDFTLTISSLQPEDFATYYCQQFNSYPFTFGPGTKVDIK
notes: Human IgG from hybridoma
EC50 (read off the curve) [4]: ~4 nM | EC50 (read off the curve) [5]: ~2 nM | Kd [6]: ~1.6 nM | EC50 (read off the curve) [7]: ~0.05 µg/mL

B4: anti-CD70 human monoclonal antibody 8B5 (antibody, V domains shown)
VH: QVQLVESGGGVVQPGRSLRLSCATSGFTFSDYGMHWVRQAPGKGLEWVAVIWYDGSNKYYADSVKGRFTISRDNSKKTLSLQMNSLRAEDTAVYYCARDSIMVRGDYWGQGTLVTVSS
VL: DIQMTQSPSSLSASVGDRVTITCRASQGISSWLAWYQQKPEKAPKSLIYAASSLQSGVPSRFSGSGSGTDFTLTISSLQPEDFATYYCQQYNSYPLTFGGGTKVEIK
notes: Human IgG from hybridoma
Kd [6]: ~5.1 nM

B5: anti-CD70 human monoclonal antibody 18E7 (antibody, V domains shown)
VH: B4 VH with T24A, Y32H, K77N, S80Y
VL: B4 VL
notes: Human IgG from hybridoma
EC50 (read off the curve) [5]: ~7 nM | Kd [6]: ~1.5 nM

B6: 2H5 F(ab′)2: F(ab′)2 fragment of anti-CD70 antibody 2H5 (antibody, V domains shown)
VH: B1 VH
VL: B1 VL
functional blocking of CD70 costimulated T cell proliferation [10]: reduced functional blocking efficacy

B7: 2H5 Fab: Fab fragment of anti-CD70 antibody 2H5 (antibody, V domains shown)
VH: B1 VH
VL: B1 VL
functional blocking of CD70 costimulated T cell proliferation [10]: complete lack of functional blocking activity

B8: 69A7Y: same as 69A7 with C to Y mutation at VH position 100; VH SEQ ID NO:73, VL SEQ ID NO:11 (antibody, listed as Homo sapiens, V domains shown)
VH: QVQLQESGPGLVKPSETLSLTCTVSGGSVSSDYYYWSWIRQPPGKGLEWLGYIYYSGSTNYNPSLKSRVTISVDTSKNQFSLKLRSVTTADTAVYYCARGDGDYGGNYFDYWGQGTLVTVSS
VL: B1 VL with Y49F, T92S
epitope on CD70 (CD70): distinct epitopes
